Measurements published in paper PMC12591191, “SIRT6 Lysine‐Demyristoylates ATF2 to Ameliorate Vascular Injury via PRKCD/VE‐Cadherin Pathway Regulating Vascular Endothelial Barrier” (Advanced Science, 2025).
Where no end group is shown, it is not given here. The star is where a group is joined. Biotin = O=C1N[C@H]2[C@H](CS[C@H]2CCCCC(=O)*)N1; Myristoyl = CCCCCCCCCCCCCC(=O)*

Tests used:
Assay in all cases: BLI; Octet Red96, 96 well plates, PBS-T buffer (1X PBS, 0.05% tween-20); 120 µM biotinylated peptide attached to the sensor; analytes (SIRT6/SIRT6 mutants) from 0.18 to 5.5 µM; also run with cofactors (5 mM Mg2+, Zn2+, ATP, ADP, AMP, cAMP, NAD+)
Settings in all cases: both partners purified
[1] = molecular target: T1, Wild-type SIRT6 (Sirtuin 6) (human, UniProt Q8N6T7 1-355)
T1 construct: human SIRT6, full length (1-355aa), from pUC57-SIRT6 into pET28a; no tag cleavage is described; also called SIRT6 WT; source: E. coli ArcticExpress (DE3), purified (Ni Sepharose); not shown: His-tag, N-terminal, kept; Flag, C-terminal, kept

[2] = molecular target: T2, SIRT6 H133Y (human, UniProt Q8N6T7 1-355, H133Y)
T2 construct: human SIRT6, full length (1-355aa), pET28a-SIRT6H133Y; also called dSIRT6; dSIRT6 (H133Y); source: E. coli ArcticExpress (DE3), purified (Ni Sepharose); not shown: His-tag, N-terminal, kept; Flag, C-terminal, kept

[3] = molecular target: T3, SIRT6 S56Y (human, UniProt Q8N6T7 1-355, S56Y)
T3 construct: human SIRT6, full length (1-355aa), pET28a-SIRT6S56Y; also called dSIRT6 variant; source: E. coli ArcticExpress (DE3), purified (Ni Sepharose); not shown: His-tag, N-terminal, kept; Flag, C-terminal, kept

[4] = molecular target: T4, SIRT6 R65A (human, UniProt Q8N6T7 1-355, R65A)
T4 construct: human SIRT6, full length (1-355aa), pET28a-SIRT6R65A; also called dSIRT6 variant; source: E. coli ArcticExpress (DE3), purified (Ni Sepharose); not shown: His-tag, N-terminal, kept; Flag, C-terminal, kept
T4 sequence (Q8N6T7 whole entry R65A): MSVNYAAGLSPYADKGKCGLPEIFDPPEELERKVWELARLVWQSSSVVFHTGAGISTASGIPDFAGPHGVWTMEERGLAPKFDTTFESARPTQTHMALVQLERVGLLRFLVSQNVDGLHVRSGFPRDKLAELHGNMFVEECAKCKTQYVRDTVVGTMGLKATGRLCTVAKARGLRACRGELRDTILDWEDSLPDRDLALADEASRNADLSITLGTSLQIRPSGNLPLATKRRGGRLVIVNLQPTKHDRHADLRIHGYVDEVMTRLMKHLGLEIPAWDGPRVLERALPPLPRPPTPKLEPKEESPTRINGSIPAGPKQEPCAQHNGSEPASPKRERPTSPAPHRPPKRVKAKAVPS

T1 sequence (Q8N6T7 whole entry): as the sequence (Q8N6T7 whole entry R65A) above, with A65R counted along it
T2 sequence (Q8N6T7 whole entry H133Y): as the sequence (Q8N6T7 whole entry R65A) above, with A65R, H133Y counted along it
T3 sequence (Q8N6T7 whole entry S56Y): as the sequence (Q8N6T7 whole entry R65A) above, with S56Y, A65R counted along it

Kd [1]: 8.1 ± 0.96 µM
binding result [2]: binds
binding result [3]: binds
binding result [4]: binds
B1: B-H3K9^Myr-5R (biotin-KQTARK^MyrSTGGKARRRRR) (peptide)
peptide: Biotin-KQTARK(Myristoyl)STGGKARRRRR
notes: histone H3 N-terminal stretch around K9; five arginine residues added at the C-terminus so that the peptide is soluble in water; also called myristoylated peptide; source: synthetic peptide (Boster Biological Technology)
